Test results: patent publication US20220185900A1 (Regeneron, published 2022)

T1: Macaca fascicularis (mf) RET.mmh (Macaca fascicularis)
T1 construct: also called monkey RET
T1 chain: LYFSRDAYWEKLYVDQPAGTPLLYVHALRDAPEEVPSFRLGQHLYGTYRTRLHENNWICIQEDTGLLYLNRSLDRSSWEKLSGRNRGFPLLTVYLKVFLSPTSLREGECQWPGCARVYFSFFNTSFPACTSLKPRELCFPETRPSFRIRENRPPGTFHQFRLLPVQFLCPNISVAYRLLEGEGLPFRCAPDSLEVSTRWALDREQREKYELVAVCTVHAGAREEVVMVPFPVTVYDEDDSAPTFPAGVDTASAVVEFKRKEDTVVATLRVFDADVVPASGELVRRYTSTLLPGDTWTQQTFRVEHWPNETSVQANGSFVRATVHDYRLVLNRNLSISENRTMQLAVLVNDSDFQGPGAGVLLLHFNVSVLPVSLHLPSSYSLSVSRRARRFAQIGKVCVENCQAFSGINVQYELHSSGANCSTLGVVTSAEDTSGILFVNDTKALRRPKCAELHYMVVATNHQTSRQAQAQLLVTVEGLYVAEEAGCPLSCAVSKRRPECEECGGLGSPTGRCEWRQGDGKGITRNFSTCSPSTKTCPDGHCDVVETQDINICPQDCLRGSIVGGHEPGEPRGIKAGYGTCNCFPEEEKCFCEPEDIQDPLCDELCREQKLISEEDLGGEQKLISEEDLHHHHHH


Key:
hRET.mmh [1] = molecular target: T2, hRET.mmh (human, UniProt P07949 29-635, biotinylated in the ELISA of Example 4 (biot-hRET.mmh); not in the SPR of Example 3); assay: competition sandwich ELISA: 1 nM biot-hRET.mmh + antibody, plate-coated GDNF/GFRα1 co-complex
T2 construct: also called biot-hRET.mmh; soluble monomeric human RET
Procedure: The ability of anti-RET antibodies to block the binding of human RET to pre-complexed plate bound GDNF:GFRα1 was assessed using a competition sandwich ELISA.
Antibody-RET mixtures were incubated for 1 hour at RT and then transferred to microtiter plates previously coated with the hGDNF/hGFRα1 co-complex. Binding was allowed to proceed for 1 hr at RT followed by extensive washing. […] Plates were read at 450 nm and data analysis used a sigmoidal dose-response model within Prism™ software.
The absorbance values of the wells containing the highest concentration for each antibody were used to determine the blocking percent at maximum concentration antibody tested.

hRET.mmh [2] = molecular target: T2, hRET.mmh; assay: SPR Biacore T200, mAb capture, 25 C
Procedure: (§1) Binding affinities and kinetic constants of human anti-RET antibodies were determined by surface plasmon resonance (Biacore T200) at […] (Tables 2-3). […] Binding equilibrium dissociation constants (KD) and dissociative half-lives (t_{1/2}) were calculated from the kinetic rate constants as: KD [M]=kd/kₐ; and t_{1/2}(min)=(ln2/(60*kd). Calculations were performed using BiacoreT200 evaluation software v1.0.

[3] = molecular target: T1, Macaca fascicularis (mf) RET.mmh; assay: SPR Biacore T200, mAb capture, 25 C
Procedure: as §1

hRET.mFc [4] = molecular target: T3, hRET.mFc (human); assay: SPR Biacore T200, mAb capture, 25 C
T3 construct: also called dimeric human RET
Procedure: as §1

hRET.mmh [5] = molecular target: T2, hRET.mmh; assay: SPR Biacore T200, mAb capture, 37 C
Procedure: as §1

[6] = molecular target: T1, Macaca fascicularis (mf) RET.mmh; assay: SPR Biacore T200, mAb capture, 37 C
Procedure: as §1

hRET.mFc [7] = molecular target: T3, hRET.mFc; assay: SPR Biacore T200, mAb capture, 37 C
Procedure: as §1

% Max Blocking (hRET.mmh [1]) [%]	Kd (hRET.mmh [2]) [nM]	koff (hRET.mmh [2]) [s⁻¹]	kon (hRET.mmh [2]) [M⁻¹ s⁻¹]	t½ (hRET.mmh [2]) [min]	Kd [3] [nM]	koff [3] [s⁻¹]	kon [3] [M⁻¹ s⁻¹]	t½ [3] [min]	Kd (hRET.mFc [4]) [nM]	koff (hRET.mFc [4]) [s⁻¹]	kon (hRET.mFc [4]) [M⁻¹ s⁻¹]	t½ (hRET.mFc [4]) [min]	Kd (hRET.mmh [5]) [nM]	koff (hRET.mmh [5]) [s⁻¹]	kon (hRET.mmh [5]) [M⁻¹ s⁻¹]	t½ (hRET.mmh [5]) [min]	Kd [6] [nM]	koff [6] [s⁻¹]	kon [6] [M⁻¹ s⁻¹]	Binder	other results
72	1.41	0.000219	156000	53	2.32	0.000272	117000	43	0.89	0.000179	200000	65	3.79	0.000896	236000	13	7.04	0.00114	161000	H4H8071P (antibody, human IgG4, V domains shown, human IgG4 Fc (H4H prefix)) VH: EVQLVESGGGLVQPGGSLRLSCAASGFTFTTYFMSWVRQAPGKGLEWVSGISGSGTSTFYVDSMKGRFTISRDNSKNTLYLQMNSLRVEDTAVYFCAKENTYGHFDFWGQGTLVTVSS VL: DIQLTQSPSFLSASVGDRVTITCWASQDISSHLAWYQQKPGKAPKVLIYDASTLQSGVPSRISGSGSGTEFTLTISSLQPEDFAAYYCQQLDGYPYTFGQGTKLEIK	IC50 (hRET.mmh [1]): 0.36 nM; t½ [6]: 10 min; Kd (hRET.mFc [7]): 1.04 nM; koff (hRET.mFc [7]): 0.000312 s⁻¹; kon (hRET.mFc [7]): 300000 M⁻¹ s⁻¹; t½ (hRET.mFc [7]): 37 min
95	0.409	0.000311	761000	37	0.523	0.000393	751000	29	0.179	0.000149	827000	78	1.41	0.00157	1.11e+06	7	1.88	0.00209	1.12e+06	H4H8060P (antibody, human IgG4, V domains shown, human IgG4 Fc (H4H prefix)) VH: QVTLKESGPVLVKPTETLTLTCTVSGFSLSSARMGVSWIRQPPGKALEWLAHIFSTDEKSYSTSLKSRLSISKDTSLSQVVLIMTNMDPVDTATYYCARRTTMAPYYYYYGMDVWGHGTTVTVSS VL: AIQMTQSPASLSASVGDRVTITCRASQGIRNDLGWYQQKPGKAPKLLISAASSLQSGVPSRFSGSGSGTDFTLTISSLQPEDFATYYCLQDYKYPWTFGQGTKVEIK	IC50 (hRET.mmh [1]): < 0.25 nM; t½ [6]: 6 min; Kd (hRET.mFc [7]): 0.558 nM; koff (hRET.mFc [7]): 0.000592 s⁻¹; kon (hRET.mFc [7]): 1.06e+06 M⁻¹ s⁻¹; t½ (hRET.mFc [7]): 19 min
73	2.56	0.000539	211000	21	2.69	0.000583	216000	20	1.47	0.000272	185000	42	8.88	0.00289	326000	4	10.3	0.00313	303000	H4H8056P (antibody, human IgG4, V domains shown, human IgG4 Fc (H4H prefix)) VH: QVQLVESGGGVVQPGRSLRLSCAASGFTFRNYGMHWVRQAPGKGLEWVAVKRYDGSDEYFVDSVKGRFTISRDNSKNTLFLQMNSLRVDDTAVYYCARETPITGTTLDYWGQGTLVTVSS VL: DIQMTQSPSSLSASVGDRVTITCRTSQSITNYLNWYQQKPGKAPKLLIYAASRSQSGVPSRFSGSGSGTDFTLTISSLQPEDFATYYCQQSYSTPLTFGGGTKVEIK	t½ [6]: 4 min; Kd (hRET.mFc [7]): 5.62 nM; koff (hRET.mFc [7]): 0.00128 s⁻¹; kon (hRET.mFc [7]): 227000 M⁻¹ s⁻¹; t½ (hRET.mFc [7]): 9 min
93	2.09	0.000518	248000	22	2.35	0.00054	230000	21	1.1	0.000259	236000	45	4.18	0.00221	528000	5	4.16	0.00226	543000	H4H8058P (antibody, human IgG4, V domains shown, human IgG4 Fc (H4H prefix)) VH: QVQLVESGGGVGQPGRSLRLSCVASGFTFRNYGMHWVRQAPGKGLDWVAIIGYDGSKEYNVDSVKGRFTISRDNSKNTLYLQMNSLGAEDTAIYYCARESPITGTTFDYWGQGTLVTVSS VL: DIQMTQSPPSLSASVGDRVTITCRASQSIGNYLNWYQQKPGKAPKILIYAASRLQSGVPSRFSGSGSGTDFTLTISSLQPEDFATYYCQQSYSTPLTFGGGTKVEIK	IC50 (hRET.mmh [1]): 0.25 nM; t½ [6]: 5 min; Kd (hRET.mFc [7]): 2.18 nM; koff (hRET.mFc [7]): 0.00121 s⁻¹; kon (hRET.mFc [7]): 552000 M⁻¹ s⁻¹; t½ (hRET.mFc [7]): 10 min
97	0.733	0.00037	505000	31	1.46	0.000733	501000	16	0.49	0.00022	400000	53	2.65	0.00181	682000	6	6.31	0.00428	678000	H4H8062P (antibody, human IgG4, V domains shown, human IgG4 Fc (H4H prefix)) VH: EVQLVESGGGLVQPGGSLRLSCSVSGFIFKNYAMRWVRQAPGKGLEWVSGISGSGGITYYADSVRGRVTISRDNSKNTLDLQMTNLRAEDTAVYYCAKAEYSSSGAYFDYWGQGTLVTVSS VL: DIQMTQSPSSLSASVGDRVTITCRASQSIHNYLNWYLQRPGKAPKLLVYAASSLQSGVPSRFSGRGSGTDFTLTISSLQPEDFATYYCQQSYSAPYSFGQGTKLEIK	IC50 (hRET.mmh [1]): < 0.25 nM; t½ [6]: 3 min; Kd (hRET.mFc [7]): 2.4 nM; koff (hRET.mFc [7]): 0.00088 s⁻¹; kon (hRET.mFc [7]): 366000 M⁻¹ s⁻¹; t½ (hRET.mFc [7]): 13 min
92	0.27	0.000242	896000	48	0.424	0.000272	641000	42	0.087	0.000107	1.22e+06	108	0.968	0.00123	1.27e+06	9	1.57	0.00131	836000	H4H8087P (antibody, human IgG4, V domains shown, human IgG4 Fc (H4H prefix)) VH: QVQLVESGGGVVQPGRSLRLSCAASGFSFSSYGMHWVRQAPGKGLEWVAVMWYDGSNEYYADSVKGRFIISRDNSKSTLYLEMNSLRAEDTALYYCAREDWDEGYYYGMDVWGQGTTVTVSS VL: DIQMTQSPSSLFASVGDRVTITCRASQDIRYDLGWYQQKPGKAPKRLIYASSILESGVPSRFSGSGSGTEYTLTISTLQSEDFAIYYCLQHNSFPWTFGQGTKVEIK	IC50 (hRET.mmh [1]): < 0.25 nM; t½ [6]: 9 min; Kd (hRET.mFc [7]): 0.349 nM; koff (hRET.mFc [7]): 0.000441 s⁻¹; kon (hRET.mFc [7]): 1.26e+06 M⁻¹ s⁻¹; t½ (hRET.mFc [7]): 26 min
95	1.51	0.000338	224000	34	1.54	0.000327	212000	35	0.686	0.000171	250000	68	4.31	0.00136	315000	9	4.84	0.0014	289000	H4H8076P (antibody, human IgG4, V domains shown, human IgG4 Fc (H4H prefix)) VH: QVQLQQSGPGLVKPSQTLSLTCAISGDSVSSNSVAWNWIRQSPSRGLEWLGRTYYRSNWYNTYAVSVKSRITIDPDTSKNQFSLQLNSVTPEDTALYYCARGHRYSGSYFDYWGQGTLVTVSS VL: DIQMTQSPSSLSASVGDRVTITCRASQNINSYFNWYQQKPGKAPKLLIYAASSLQSGVPSRFSGGGSGTDFTLTISSLQPEDFATYYCQQTYTIPWTFGQGTKVEIK	IC50 (hRET.mmh [1]): < 0.25 nM; t½ [6]: 8 min; Kd (hRET.mFc [7]): 2.15 nM; koff (hRET.mFc [7]): 0.000675 s⁻¹; kon (hRET.mFc [7]): 314000 M⁻¹ s⁻¹; t½ (hRET.mFc [7]): 17 min
